Results from US20250011363A1, “OPTIMIZED SHORTENED PEPTIDE THAT BINDS TO ACETYLCHOLINE RECEPTOR, AND USE THEREOF” (SKINMED CO., LTD., priority 2021, published 2025).

The binders below were run against acetylcholine receptor (assay: SPR, receptor immobilized, peptide 10 uM).

Binder	Binding affinity (RU)
KNTMKR [6mer-2-836]	26
REDFRR [6mer-2-837]	32
RCTVRK [6mer-2-838]	13
KNHNRR [6mer-2-839]	32
KDWDRK [6mer-2-840]	15
KPNHRK [6mer-2-841]	33
KPKMRR [6mer-2-842]	22
KAPDRK [6mer-2-843]	33
RDPKKK [6mer-2-844]	22
KMKEKR [6mer-2-845]	14
RFSFKR [6mer-2-846]	30
RYCHKR [6mer-2-847]	22
RMTERK [6mer-2-848]	29
RNTAKK [6mer-2-849]	13
KTSMKR [6mer-2-850]	16
KFWWRR [6mer-2-851]	19

Binder	Binding affinity (RU)
RNCERR [6mer-2-852]	28
KHTGRR [6mer-2-853]	29
RCNWKR [6mer-2-854]	23
REMIKR [6mer-2-855]	19
KEPMRR [6mer-2-856]	14
KHTEKK [6mer-2-857]	20
KEEHRR [6mer-2-858]	30
RMDFRK [6mer-2-859]	21
KPNFRR [6mer-2-860]	31
KDTDRK [6mer-2-861]	21
RHTFKK [6mer-2-862]	29
RKHWRR [6mer-2-863]	17
RKCAKK [6mer-2-864]	12
RHCNRK [6mer-2-865]	16
RDNPKK [6mer-2-866]	24
